{
  "source": "patent US20260184815A1",
  "about": "(published 2026)",
  "binders": {"B1": {"name": "M209-C12 (Fab, V domains shown)", "VH": "EVQLLESGGGLVQPGGSLRLSCAASGFTFSHYLMTWVRQAPGKGLEWVSYISPSGGHTIYADSVKGRFTISRDNSKNTLYLQMNSLRAEDTAVYYCARVGRGIAARSRTSQLDYWGQGTLVTVSS", "VL": "DIQMTQSPGTLSLSPGERATLSCRTSQFVNSNYLAWYQQTPGQAPRLLIYGASSRATGIPDRFSGTGYGTDFTLTISRLEPEDYGTYYCQQSSRTPWTFGQGTRVEIK"}, "B2": {"name": "M209-D03 (Fab, V domains shown)", "VH": "B1 VH with Q111F, L112F, Y114Q", "VL": "B1 VL"}, "B3": {"name": "M6-A08 (Fab, V domains shown)", "VH": "EVQLLESGGGLVQPGGSLRLSCAASGFTFSPYPMQWVRQAPGKGLEWVSSISSSGGMTEYADSVKGRFTISRDNSKNTLYLQMNSLRAEDTAVYYCARDDYGGKGGAFDIWGQGTMVTVSS", "VL": "DIQMTQSPSSLSASVGDRVTITCRASQRISFYLNWFQQKPGKAPNLLIYGASSLQSGVPSRFSGSGSGTDFTLTISSLQPKDFGTYYCQQTFSTPNTFGQGTKLEIK", "notes": "HC as printed runs into CH1"}, "B4": {"name": "M6-D03 (Fab, V domains shown)", "VH": "EVQLLESGGGLVQPGGSLRLSCAASGFTFSKYFMGWVRQAPGKGLEWVSVIGSSGGWTSYADSVKGRFTISRDNSKNTLYLQMNSLRAEDTAVYYCARVSTAVADNDYWGQGTLVTVSS", "VL": "not shown", "notes": "HC as printed runs into CH1"}, "B5": {"name": "M6-D08 (Fab, V domains shown)", "VH": "EVQLLESGGGLVQPGGSLRLSCAASGFTFSRYHMVWVRQAPGKGLEWVSSISPSGGWTNYADSVKGRFTISRDNSKNTLYLQMNSLRAEDTAMYYCAREMATIAGQFDPWGQGTLVTVSS", "VL": "DIQMTQSPSSLSASVGDRVTITCRASQSISSYLNWYQQKPGKAPKLLIYGASSLQSGVPSRFSGSGSGTDFTLTISSLQPEDSATYYCQQSYTRWTFGQGTKVEIK", "notes": "HC as printed runs into CH1; LC amber q (WYqQK) written as Q"}, "B6": {"name": "M6-G05 (Fab, V domains shown)", "VH": "EVQLLESGGGLVQPGGSLRLSCAASGFTFSRYRMVWVRQAPGKGLEWVSSIYPSGGMTAYADSVKGRFTISRDNSKNTLYLQMNSLRAEDTAVYYCARDAVGIGDAFDIWGQGTMVTVSS", "VL": "DIQMTQSPSSLSASVGDRVTITCRASQSISTYLNWYQLKPGKAPKLLIYNAFSMERGVPSTISGSGSGTDFTLTISSLQPEDFATYYCQQSYTTPTTFGQGTKVEIK", "notes": "HC as printed runs into CH1"}, "B7": {"name": "M8-C04 (Fab, V domains shown)", "VH": "EVQLLESGGGLVQPGGSLRLSCAASGFTFSYYPMQWVRQAPGKGLEWVSYIYPSGGLTSYADSVKGRFTISRDNSKNTLYLQMNSLRAEDTAVYYCARLFYGSGSVGFEYWGQGTLVTVSS", "VL": "QSALTQPPSVSVSPGQTASITCSGDKLGDKYTSWHQQKPGQSPVLVIYQDSKRPSGIPERFSGSNSGNTATLTISGTQAMDEADYYCQAWDSSTVFGGGTRLTVL", "notes": "HC as printed runs into CH1"}, "B8": {"name": "M8-D05 (Fab, V domains shown)", "VH": "EVQLLESGGGLVQPGGSLRLSCAASGFTFSLYNMNWVRQAPGKGLEWVSSISPSGGFTDYADSVKGRFTISRDNSKNTLYLQMNSLRAEDTAVYYCARDLDLGILDYWGQGTLVTVSS", "VL": "DIQMTQSPSFVSASVGDRVTITCRASQDISSWLVWYQQKPGKGPKLLIYDASNLQSGVPSRFSGGGSGTHFTLTISSLQPEDFATYYCQQADGFPLTFGGGTKVEMK", "notes": "HC as printed runs into CH1"}, "B9": {"name": "M8-E06 (Fab, V domains shown)", "VH": "EVQLLESGGGLVQPGGSLRLSCAASGFTFSHYFMTWVRQAPGKGLEWVSSIVPSGGMTQYADSVKGRFTISRDNSKNTLYLQMNSLRAEDTAVYYCARDSYSSSWFDIWGQGTMVTVSS", "VL": "not shown", "notes": "HC as printed runs into CH1"}, "B10": {"name": "M8-G09 (Fab, V domains shown)", "VH": "EVQLLESGGGLVQPGGSLRLSCAASGFTFSLYEMLWVRQAPGKGLEWVSVIYPSGGYTDYADSVKGRFTISRDNSKNTLYLQMNSLRAEDMAVYYCARSFSGFGEIDYWGQGTLVTVSS", "VL": "DIQMTQSPSSLSASVGDTVTITCRASQGVSYYLAWFQQKPGKAPKSLIYGASSLQSGVPSKFSGSGSGTVFTLTISSLQPDDFATYYCQQYNTYPPTFGQGTRLDIK", "notes": "HC as printed runs into CH1"}, "B11": {"name": "M8-H04 (Fab, V domains shown)", "VH": "EVQLLESGGGLVQPGGSLRLSCAASGFTFSGYWMGWVRQAPGKGLEWVSSISSSGGWTQYADSVKGRFTISRDNSKNTLYLQMNSLRAEDTATYYCARDDEIAAGGAFDIWGQGAMVTVSS", "VL": "DIQMTQSPSSLSASIGDRVTITCRASQYISTYLNWYEQKPGKAPKLLIYGTSSLQSGVPSRFSGSGSGTEFSLTISSLQPEDFATYYCQQSFTTPFTFGQGTKLEIK", "notes": "HC as printed runs into CH1"}, "B12": {"name": "M9-A03 (Fab, V domains shown)", "VH": "not shown", "VL": "DIQMTQSPSSLSASLGDRVTITCRASQNIDIYLNWYQQTPGKAPKLLIYGAYNLQSGVPSRFSGSGSGTDFTLTISSLQPEDFGTYYCQQSYGTPVFGQGTKLEIK", "notes": "HC as printed runs into CH1"}, "B13": {"name": "M9-A08 (Fab, V domains shown)", "VH": "EVQLLESGGGLVQPGGSLRLSCAASGFTFSAYEMWWVRQAPGKGLEWVSYIGSSGGSTSYADSVKGRFTISRDNSKNTLYLQMNSLRAEDTAVYYCTGGNSSSFDAFDIWGQGTMVTVSS", "VL": "DIQMTQSPSSLSASVGDRVTVTCRASQRISTYLNWYQQKPGKAPKLLISGASSLQSGVPSRFSGSGSGTDFTLTISSLQPDDFATYYCQQSYNTPRTFGQGTKVEIR", "notes": "HC as printed runs into CH1"}, "B14": {"name": "M9-C08 (Fab, V domains shown)", "VH": "EVQLLESGGGLVQPGGSLRLSCAASGFTFSHYGMVWVRQAPGKGLEWVSYIVPSGGLTYYADSVKGRFTISRDNSKNTLYLQMNSLRAEDTAVYYCARVDYTGDGLGYWGQGTLVTVSS", "VL": "DIQMTQSPSSLSASVGDRVTITCRASQSISIYVNWYQQKPGKAPNLLIFAASSLQRGVPSRFSGSGSGADFTLTISSLQPEDFATYYCQQSFSTPLTFGGGTKVEIK", "notes": "HC as printed runs into CH1"}, "B15": {"name": "M6-D09 (antibody, V domains shown)", "VH": "EVQLLESGGGLVQPGGSLRLSCAASGFTFSFYYMVWVRQAPGKGLEWVSVIYPSGGITVYADSVKGRFTISRDNSKNTLYLQMNSLRAEDTAVYYCARDKWAVMPPYYYYAMDVWGQGTTVTVSS", "VL": "DIQMTQSPSSLSASVGDRVTITCRASQSIRNYLNWYQQKPGKAPNLLIYAASTLQSGVPARFSGSGSGTDFTLTISSLQPEDFATYYCQQLSGYPHTFGQGTKLEIK", "notes": "also called M06-D09; 559A-M06-D09"}, "B16": {"name": "M197-G10 (Fab, V domains shown)", "VH": "EVQLLESGGGLVQPGGSLRLSCAASGFTFSVYAMRWVRQAPGKGLEWVSSIYPSGGKTWYADSVKGRFTISRDNSKNTLYTLQMNSLRAEDAVYYCAYRRTGIPRRDAFDIWGQGTMVTVSS", "VL": "DIQMTQSPSTLSASVGDRVTITCRASQSISSWLAWYQQKPGKAPNLLIYKASTLESGVPSRFSGSGSGTEFTLTISSLQPDDFATYYCQQYNTYWTFGQGTKVEIK"}, "B17": {"name": "M201-F11 (Fab, V domains shown)", "VH": "EVQLLESGGGLVQPGGSLRLSCAASGFTFSHYIMMWVRQAPGKGLEWVSGIYSSGGITVYADSVKGRFTISRDNSKNTLYLQMNSLRAEDTAVYYCAYRRSGIPRRDAFDIWGQGTMVTVSS", "VL": "B16 VL with P80Q, D81P, F83D, A84F, T85A, Y86T, C88Y, Q89C"}, "B18": {"name": "M198-A01 (Fab, V domains shown)", "VH": "B17 VH with H31P, I33T, M35I, G50S, Y52S, I57M, V59P, S101T", "VL": "B16 VL"}},
  "note": "Residue numbers refer to the chain shown, from its start.",
  "data": [
    {"biological_target": "T1, human plasma kallikrein (human, UniProt P03952 20-390; P03952 391-638)", "assay": "cell-based or functional assay", "units": {"% inhibition at 10 nM": "%"}, "T1 sequence (P03952 20-390, chain 1 of 2)": "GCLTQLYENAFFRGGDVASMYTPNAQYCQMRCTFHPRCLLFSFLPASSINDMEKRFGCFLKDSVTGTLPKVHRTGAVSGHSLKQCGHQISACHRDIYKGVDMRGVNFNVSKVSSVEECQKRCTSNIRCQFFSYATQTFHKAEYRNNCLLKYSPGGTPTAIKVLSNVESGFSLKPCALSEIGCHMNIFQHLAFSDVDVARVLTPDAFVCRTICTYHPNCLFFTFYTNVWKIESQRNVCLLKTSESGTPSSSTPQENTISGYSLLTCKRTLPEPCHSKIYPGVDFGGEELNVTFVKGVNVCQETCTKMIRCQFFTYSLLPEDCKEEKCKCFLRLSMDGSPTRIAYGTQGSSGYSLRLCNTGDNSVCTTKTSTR", "T1 sequence (P03952 391-638, chain 2 of 2)": "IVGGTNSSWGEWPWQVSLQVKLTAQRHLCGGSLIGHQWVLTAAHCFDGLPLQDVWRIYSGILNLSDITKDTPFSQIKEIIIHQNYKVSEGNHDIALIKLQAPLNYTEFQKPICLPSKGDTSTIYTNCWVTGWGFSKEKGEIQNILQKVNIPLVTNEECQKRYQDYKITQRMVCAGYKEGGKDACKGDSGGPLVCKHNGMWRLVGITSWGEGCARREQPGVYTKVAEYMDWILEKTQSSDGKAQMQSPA", "values": [
      {"binder": "B1", "% inhibition at 10 nM": 93.4},
      {"binder": "B2", "% inhibition at 10 nM": 80.4}
    ]},
    {"biological_target": "T2, human plasma kallikrein (human, UniProt P03952 20-390; P03952 391-638)", "T2 construct": "also called pKal; Human pKal", "assay": "ELISA, biotinylated pKal signal over streptavidin background", "excerpt": "Abbreviations used: “T/B” is the ELISA signal obtained using of the “target” (biotinylated plasma kallikrein) divided by the ELISA signal of the “background” (streptavidin); both of which were coated on microtiter plates, “nd” is not determined. The symbol “q” refers to the amber suppressible stop codon (TAG), which is translated as glutamine (Q) in strains of E. coli such as the TG1 cells that were used to express the Fab fragments.", "units": {"ELISA (T/B)": "T/B"}, "T2 sequence (P03952 20-390, chain 1 of 2)": "as the sequence (P03952 20-390, chain 1 of 2) above", "T2 sequence (P03952 391-638, chain 2 of 2)": "as the sequence (P03952 391-638, chain 2 of 2) above", "values": [
      {"binder": "B3", "ELISA (T/B)": 23.4},
      {"binder": "B4", "ELISA (T/B)": 15.5},
      {"binder": "B5", "ELISA (T/B)": 16},
      {"binder": "B6", "ELISA (T/B)": 18.5},
      {"binder": "B7", "ELISA (T/B)": 44.7},
      {"binder": "B8", "ELISA (T/B)": 11.9},
      {"binder": "B9", "ELISA (T/B)": 8.8},
      {"binder": "B10", "ELISA (T/B)": 28.2},
      {"binder": "B11", "ELISA (T/B)": 3.3},
      {"binder": "B12", "ELISA (T/B)": 14.4},
      {"binder": "B13", "ELISA (T/B)": 5.5},
      {"binder": "B14", "ELISA (T/B)": 10.9}
    ]},
    {"biological_target": "T3, pKal catalytic domain Mutant 2 (human, UniProt P03952 391-638, limits assumed)", "T3 construct": "domain: catalytic domain; Expressed in Pichia pastoris, purified by IMAC; not shown: His tag fusion", "T3 sequence (P03952 other isoform, or with tags, fused parts or gaps mutant limits assumed)": "as the sequence (P03952 391-638, chain 2 of 2) above, with R161A, Q163A, Y165A, T168A, R170A counted along it", "assay": "enzyme inhibition, equilibrium Ki,app", "units": {"fold increase of Ki,app against the wild type catalytic domain": "fold"}, "values": [
      {"binder": "B15", "fold increase of Ki,app against the wild type catalytic domain": "~5"}
    ]},
    {"biological_target": "T1, human plasma kallikrein", "assay": "cell-based or functional assay", "remark": "another data set of the same source", "units": {"% inhibition at 10 nM": "%"}, "values": [
      {"binder": "B16", "% inhibition at 10 nM": 67.6},
      {"binder": "B17", "% inhibition at 10 nM": 15.7},
      {"binder": "B18", "% inhibition at 10 nM": 13.8}
    ]}
  ]
}
